Target: the molecule itself
Experiment: SEC-MALS; SEC-MALLS of purified recombinant proteins in solution

B1: S. pombe Erh1, wild type, recombinant (natural protein, UniProt G2TRN4 1-104, looked up)
chain: MSPPPAESHIILLIQQGSDPKTRIWSDHCSLRSAIEYIVGVYQTNQAVSEKESIDVSRFFNFFDEIYDCVPLVYDRHFRAYIPHEKQWLLHHAQEYLTAARQIP
notes: Erh1, S. pombe, full length, from plasmid pMG921 (pGEX-6P1); After 3C cleavage some residues of the N-terminal tag remain (4 of them are seen in protomer B of the crystal structure); also called wild-type Erh1; apo-Erh1; source: E. coli BL21 (DE3) Codon+, purified (GSH-sepharose, 3C cleavage, Superdex 75); not shown: GST, N-terminal, cleaved
In the case of B1, the “stoichiometry N” value is reported as 2.

— PMC6978305, “Formation of S. pombe Erh1 homodimer mediates gametogenic gene silencing and meiosis progression” (Scientific Reports, 2020)
